Measured values from patent publication US20240108766A1 (Bayer, published 2024).

Columns and labels:
[1] = target: T1, human LRRC15 extracellular domain with C-terminal His tag (human, UniProt Q8TF66 22-538); assay: SPR Biacore T200, antibody captured, LRRC15 analyte, 20°C
T1 construct: Recombinant, made in HEK293; the entry holds the extracellular domain and the His tag; SPR analyte; also called TPP-1545; hLRRC15 CT-His
T1 sequence: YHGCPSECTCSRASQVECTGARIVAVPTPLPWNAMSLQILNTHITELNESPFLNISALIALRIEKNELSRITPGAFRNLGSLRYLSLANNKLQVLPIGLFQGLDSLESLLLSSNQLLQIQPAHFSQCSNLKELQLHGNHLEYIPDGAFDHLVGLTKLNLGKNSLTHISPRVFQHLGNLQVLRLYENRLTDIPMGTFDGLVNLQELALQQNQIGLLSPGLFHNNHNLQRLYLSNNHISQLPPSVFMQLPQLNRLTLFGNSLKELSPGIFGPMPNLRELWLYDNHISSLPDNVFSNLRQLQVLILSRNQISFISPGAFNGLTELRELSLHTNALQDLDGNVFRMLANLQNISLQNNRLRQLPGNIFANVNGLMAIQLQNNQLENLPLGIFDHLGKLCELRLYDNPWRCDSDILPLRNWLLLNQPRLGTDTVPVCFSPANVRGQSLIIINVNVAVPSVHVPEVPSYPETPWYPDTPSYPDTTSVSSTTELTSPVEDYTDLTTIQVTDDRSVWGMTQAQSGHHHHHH
Experimental: (§1) To assess if anti-LRRC-15 antibodies show a difference in binding at different temperatures, binding assays were conducted using surface plasmon resonance (SPR). Binding assays were performed on a Biacore T200 instrument at temperatures of 10° C., 20° C., 25° C. and 37° C. with assay buffer HBS EP+, 1 mg/ml BSA (bovine serum albumine), 300 mM NaCl, 0.05% NaN₃. Antibodies were captured via anti-human Fc IgGs covalently amine coupled to a CM5 sensor chip and human LRRC15 was used as an analyte in a concentration series from 1.56-200 nM in multi cycle kinetics mode. Pre-experiments were conducted to have an equal capture level at each temperature. Obtained sensorgrams were fitted to a 1:1 Langmuir binding model to derive kinetic data.

[2] = target: T1, human LRRC15 extracellular domain with …; assay: SPR Biacore T200, antibody captured, LRRC15 analyte, 10°C
Experimental: as §1

[3] = target: T2, Ephrin type-B receptor 6 (EPHB6) on transfected HEK293 cells (human, UniProt O15197 32-1021); assay: flow cytometry, transfected HEK293, 62.5 µg/ml
T2 construct: whole, on cells; also called EPHB6/ZsGreen1
T2 sequence (looked up): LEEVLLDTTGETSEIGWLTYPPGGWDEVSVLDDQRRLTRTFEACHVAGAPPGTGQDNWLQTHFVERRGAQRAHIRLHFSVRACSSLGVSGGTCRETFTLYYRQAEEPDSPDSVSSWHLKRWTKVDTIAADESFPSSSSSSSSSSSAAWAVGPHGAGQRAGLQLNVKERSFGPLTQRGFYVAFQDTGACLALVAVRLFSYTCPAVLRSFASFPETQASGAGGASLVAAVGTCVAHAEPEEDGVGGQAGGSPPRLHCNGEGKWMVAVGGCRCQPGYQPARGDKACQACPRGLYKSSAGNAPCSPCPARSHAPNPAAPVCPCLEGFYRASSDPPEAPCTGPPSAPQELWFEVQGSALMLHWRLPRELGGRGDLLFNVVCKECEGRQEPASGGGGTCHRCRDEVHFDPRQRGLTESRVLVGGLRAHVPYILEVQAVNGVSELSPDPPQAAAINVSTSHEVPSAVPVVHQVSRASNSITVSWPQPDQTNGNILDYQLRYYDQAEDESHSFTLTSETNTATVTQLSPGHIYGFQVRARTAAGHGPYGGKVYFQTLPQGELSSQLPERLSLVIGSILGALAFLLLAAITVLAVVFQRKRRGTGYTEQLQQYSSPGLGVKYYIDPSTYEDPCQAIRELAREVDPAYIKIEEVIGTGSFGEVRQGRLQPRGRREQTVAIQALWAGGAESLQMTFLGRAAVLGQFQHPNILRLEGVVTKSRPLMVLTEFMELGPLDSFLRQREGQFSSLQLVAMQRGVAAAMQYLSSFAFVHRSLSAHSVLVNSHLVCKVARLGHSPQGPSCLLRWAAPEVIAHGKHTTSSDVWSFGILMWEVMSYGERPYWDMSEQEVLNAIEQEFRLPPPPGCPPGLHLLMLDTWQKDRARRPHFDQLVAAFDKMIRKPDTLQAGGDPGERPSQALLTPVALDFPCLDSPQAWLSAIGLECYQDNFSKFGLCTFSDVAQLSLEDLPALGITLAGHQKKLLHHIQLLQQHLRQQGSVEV

[4] = target: T2, Ephrin type-B receptor 6 (EPHB6) on …; assay: flow cytometry, transfected HEK293, 12.5 µg/ml
[5] = target: T2, Ephrin type-B receptor 6 (EPHB6) on …; assay: flow cytometry, transfected HEK293, 0.5 µg/ml
[6] = target: T2, Ephrin type-B receptor 6 (EPHB6) on …; assay: flow cytometry, transfected HEK293, 0 µg/ml
[7] = target: T2, Ephrin type-B receptor 6 (EPHB6) on …; assay: flow cytometry, transfected HEK293, 0.1 µg/ml
[8] = target: T2, Ephrin type-B receptor 6 (EPHB6) on …; assay: flow cytometry, transfected HEK293, 0.02 µg/ml
[9] = target: T2, Ephrin type-B receptor 6 (EPHB6) on …; assay: flow cytometry, transfected HEK293, 0.004 µg/ml
[10] = target: T2, Ephrin type-B receptor 6 (EPHB6) on …; assay: flow cytometry, transfected HEK293, 2.5 µg/ml

B1: TPP-14389 (antibody, human IgG1, kappa, V domains shown)
VH: EVQLLESGGGLVQPGGSLRLSCAASGFTFSGYMMSWVRQAPGKGLEWVSGIYPSPGYTYYADSVKGRFTISRDNSKNTLYLQMNSLRAEDTAVYYCAREKASDLFGSYSEALDYWGQGTLVTVSS
VL: DIQMTQSPDSLSASVGDRVTITCRASQDVGSWLAWYQQKPGKAPKLLIFAASSLESGIPSRFSGSGSGTDFTLTISSLQPEDFATYYCQQANGFPLTFGGGTKVEIKR
notes: also called 13612-rec02-hIgG1Kappa
[1]
  Kd: 2 nM
[2]
  Kd: 0.61 nM

B2: TPP-12942 (antibody, human IgG1, kappa, V domains shown)
VH: EVQLVQSGAEVKKPGASVKVSCKASGYKFSSYWIEWVKQAPGQGLEWIGEILPGSDTTNYNEKFKDRATFTSDTSINTAYMELSRLRSDDTAVYYCARDRGNYRAWFGYWGQGTLVTVSS
VL: DIQMTQSPSSLSASVGDRVTITCRASQDISNYLNWYQQKPGGAVKFLIYYTSRLHSGVPSRFSGSGSGTDYTLTISSLQPEDFATYFCQQGEALPWTFGGGTKVEIKR
notes: Prior art humanized IgG1 kappa antibody, used as comparator; also called huM25; huM25-hIgG1Kappa
[2]
  Kd: 5.2 nM

B3: TPP-17421 (antibody, human IgG1, kappa, V domains shown)
VH: EVQLVQSGAEVKKPGASVKVSCKASGYKFSSYWIEWVKQAPGQGLEWIGEILPGSDWTNYNEKFKDRATFTSDTSINTAYMELSRLRSDDTAVYYCARDRGNYRAWFQYWGQGTLVTVSS
VL: DIQMTQSPSSLSASVGDRVTITCRASQSISSYLNWYQQKPGGAPKFLIYYASSLQSGVPSRFSGSGSGTDYTLTISSLQPEDFATYYCQQGLELPWTFGGGTKVEIKR
notes: also called 438H-M306-C11-hIgG1Kappa
[3]
  Median Fluorescence AF647: 9050
[4]
  Median Fluorescence AF647: 5390
[5]
  Median Fluorescence AF647: 3150
[6]
  Median Fluorescence AF647: 628
[1]
  Kd: 0.82 nM
[7]
  Median Fluorescence AF647: 2810
[2]
  Kd: 0.46 nM
[8]
  Median Fluorescence AF647: 1770
[9]
  Median Fluorescence AF647: 1250
[10]
  Median Fluorescence AF647: 4150

B4: TPP-17078 (antibody, human IgG1, kappa, V domains shown)
VH: EVQLVQSGAEVKKPGASVKVSCKASGYKFSSYWIEWVKQAPGQGLEWIGEILPGSDTTNYNEKFKDRATFTSDTSINTAYMELSRLRSDDTAVYYCARDRGNYRAWFGYWGQGTLVTVSS
VL: DIQMTQSPSSLSASVGDRVTITCRASQSISSYLNWYQQKPGGAPKFLIYYASSLQSGVPSRFSGSGSGTDYTLTISSLQPEDFATYYCQQGFSLPWTFGGGTKVEIKR
notes: also called 438H-M308-H05-hIgGkappa
[3]
  Median Fluorescence AF647: 14600
[4]
  Median Fluorescence AF647: 7970
[5]
  Median Fluorescence AF647: 3680
[6]
  Median Fluorescence AF647: 633
[1]
  Kd: 0.88 nM
[7]
  Median Fluorescence AF647: 3190
[2]
  Kd: 0.32 nM
[8]
  Median Fluorescence AF647: 2540
[9]
  Median Fluorescence AF647: 1780
[10]
  Median Fluorescence AF647: 5480
